{"source": "paper PMC4190070", "about": "(Nature structural & molecular biology, 2014)", "molecular_target": "T1, SA2–Scc1 cohesin subcomplex (SA2 80–1060, Scc1 281–420), purified recombinant (human, UniProt Q8N3U4;O60216)", "T1 sequence 1": "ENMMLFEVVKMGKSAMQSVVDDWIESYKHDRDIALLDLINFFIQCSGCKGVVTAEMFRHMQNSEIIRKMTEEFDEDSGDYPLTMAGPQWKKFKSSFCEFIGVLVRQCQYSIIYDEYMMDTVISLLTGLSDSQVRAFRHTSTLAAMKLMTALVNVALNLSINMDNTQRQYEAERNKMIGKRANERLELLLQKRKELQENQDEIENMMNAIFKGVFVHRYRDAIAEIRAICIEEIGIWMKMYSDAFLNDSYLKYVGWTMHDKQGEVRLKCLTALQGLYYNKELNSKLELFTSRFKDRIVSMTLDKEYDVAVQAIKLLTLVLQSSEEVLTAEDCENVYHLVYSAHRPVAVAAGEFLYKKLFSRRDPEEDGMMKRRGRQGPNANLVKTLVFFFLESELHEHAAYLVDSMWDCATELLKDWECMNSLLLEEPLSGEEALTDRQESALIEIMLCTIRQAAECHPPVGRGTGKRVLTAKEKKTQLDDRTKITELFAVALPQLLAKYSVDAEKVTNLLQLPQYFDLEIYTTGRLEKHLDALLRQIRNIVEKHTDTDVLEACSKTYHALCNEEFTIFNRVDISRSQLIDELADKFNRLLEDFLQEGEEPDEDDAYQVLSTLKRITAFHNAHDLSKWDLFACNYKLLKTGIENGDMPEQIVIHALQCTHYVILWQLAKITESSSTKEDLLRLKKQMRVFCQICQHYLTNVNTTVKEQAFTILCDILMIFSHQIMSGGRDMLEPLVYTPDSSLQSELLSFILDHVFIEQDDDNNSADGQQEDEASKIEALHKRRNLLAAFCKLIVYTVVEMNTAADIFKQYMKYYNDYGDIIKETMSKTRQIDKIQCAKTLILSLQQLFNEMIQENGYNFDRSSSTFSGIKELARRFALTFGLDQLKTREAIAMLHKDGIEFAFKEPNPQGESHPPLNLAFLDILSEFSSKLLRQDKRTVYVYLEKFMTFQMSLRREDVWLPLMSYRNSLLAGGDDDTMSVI", "T1 sequence 2": "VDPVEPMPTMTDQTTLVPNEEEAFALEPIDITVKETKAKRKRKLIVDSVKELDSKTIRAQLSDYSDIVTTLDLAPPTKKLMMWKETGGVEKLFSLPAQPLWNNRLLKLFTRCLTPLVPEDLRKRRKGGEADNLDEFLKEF", "test": "ITC"}
{"binder": "KSENKKTVPQKKMHKSVSSNDAYNFNLEEGVHLTPFRQKVSC", "note": "[unphosphorylated Sgo1 peptide (residues 313–353)]", "values": [{"measurement": "Kd", "result": 618, "unit": "nM"}, {"measurement": "stoichiometry N", "result": 1}]}
